Data published in the nanobody polyreactivity screen of Harvey et al. (2022).

Assay: yeast display, Sf9 membrane polyspecificity reagent, FACS + sequencing; frameworks hold sequencing errors
How it was run: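 Nanobodies from a synthetic yeast display library (Saccharomyces cerevisiae BJ5465), induced 36–48 hours with galactose, were stained 1 hour at 4 °C with 10% biotinylated, detergent-solubilized Sf9 membrane reagent, enriched on streptavidin microbeads, then FACS-sorted. Anti-HA (expression) and streptavidin (reagent binding) fluorescence set low and high (top ~1%) gates. Polyreactivity labels come from the gate of origin. Genes were colony-PCR amplified, MiSeq 2 × 250 sequenced and filtered by CDR length.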

Sequence	polyreactivity (PSR sort gate)
QVQLVESGGGLVQAGGSLRLSCAASGRTFSKYAMAWYRQAPGKERELVAAISSSGGSTYYADSVKGRFTISRDNAKNTVYLQMNSLKPEDTAVYYCATRVYPRYWFTTRYRYDYWGQGTQVTVSS	low polyreactivity
QVQLVESGGGLVQAGGSLRLRCAASGRTFTYNAMVWYRQAPGKERELVPANNFSGVSTYYADSVKGRFTISRDNAKNTVYLQMNILKPEVTAVYYCAARGSARKSFPYPLEYWGQGTQVTVSS	high polyreactivity
QVQLVESGGGLVQAGGSLRLSCAASGRIFPGYAMGWYRQAPGKERELVAAISSRGGSTYYADSVKGRFTISRDNAKHTVYLQMNSLKPEDTAVYYCAAEPSWWNVFYPGYNYWGQGTQVTVSS	high polyreactivity
QVQLVESGGGLDQAGGSLRLSCAASGFIFWRNTMGWYRPAPGKERELVAVITRGGSTYYADSVKGRFTISRDTAKNTVYLQMNSLKPEDTAVYNSAARNDYFKTFSGYDYWGQGTQVTVSS	low polyreactivity
QVQLVESGGGLVQAGGSLRLSCAASGPILGQYAMGGYRQAPGKERELVAAITYSGGRTYYADSVKGRFTISRDIAKNTVYLQMNSLKPEDTAVYYCAARGRASVERRGGYYYWGQGTQVTVSS	high polyreactivity
QVQLVESGGGLVQAGGSLRLSCAASGRTFSGNTMGWYRQAPGKERELVAVINSGTRTYYADSVKGRFTISRDNAKNTVYLHMNSLKPEDTAVYYCATRSKSPSTKYGYWGQGTQVTVSS	high polyreactivity
QVQLVESGGGLVQAGGSLRLSCAASGIIFVYYDMGWYRQAPGKERELVASISRGGSTYYADSVKGRFTISRDNAKNTVYLQMNSLKPEDTAVYYCAAVPSYLGYWGQGTQVTVSS	high polyreactivity
QVQLVESGGGLVQAGGSLRLSCAASGSIFRYYAMGWYRQAHGKERELVAVITSSGTSTYYADSVKGRFTISRDNAKNTVYLQMNSRKPEDTAVDYCAVYPIIYGRMDSWGQGTQVTVSS	low polyreactivity
QVQLVESGGGLVQAGGRLRLSCAASGSTFRRNAMGWYRQAPGKERELVATISPGARTNYADSVKGRFTISRDNAKNTVYLQMNSLKPEDTAVYYCNAEFTLLYPLYDYWGQGTQVTLSS	low polyreactivity
QDQLVESGGGLVQAGGSLRLSCAASGTTFQYNAMGWYRQAPGKERELVAAISGSGGSTYYADSVKGRFTISRDNAKNTVYLEMNSLKPEDTAVYYCARVGYRHGYYNYCGQGTQVTVSS	high polyreactivity
QVQLVESGGGLVQAGGSLRLSCAASGITFDYYTMGWYRQAPGKERELVAGITRGGRTYYADSVKGRFTISRDNAKNTVYLQMNSLKPEDTAVYYCNADPWWRFDYWGQGTQVTVSS	low polyreactivity
QVQLVESGGGLVQAGGSLRLSCAASGSTFFLYGMGWYRQAPGKERELVAAITWNGGSTYYADSVKGRFTISRDNAKNTVYLQMNSLKPEDTAVYYCAADYYGYFSTPYDYWGQGTQVTVSS	low polyreactivity
QVQLVESGGGLVQAGGSLRLSCAASGSTFWPYAMGWYRQAPGKERELVAAITRSGGSTYYADSVKGRFTISRDNAKNTVYLQMNSLKPEDTAVYYCAKYTSSRFEYDYWGQGTQVTVSS	low polyreactivity
QVQLVESGGGLVQEGGSLRLSCAASGIIHYYYVMGWYRPAPGKERELVAAINRSGTATYYADSVKGRFTISRDNAKNTVYFQMNSLIPEDTAVYYCAADVRWRYYWGQGTQVTVSS	high polyreactivity
QVQLVESGGCLVQAGGSLRLSCAASGSTFRYYAMGWYRQAPGKESELVARITSRAGRTYYADSVKGRFTISRDIAKNTVYLQMNSLKPEDTAVYFCNTRDFSGYVHALSLYDYWGQGTQVTVSS	high polyreactivity
QVQLVESGGGLVQAGGSLRLSCAASGFIFTQYTMGWYRQAPGKERELVAAISFSDSSTYYADSVKGRFTISRDNAKNTVYLEMNSLKPEDTAVYFCAADYSVTLRIGGYYWFYAFDYWGQGTQVTVSS	low polyreactivity

Sequence	polyreactivity (PSR sort gate)
QVQLVESGGGLVQAGGSLRLRCAASGLTYSNAMGWYRQAPGKERELVAAISWRGGRTYYADSVKGRFTISRDNAKNTVYLQMNSLKPEDTAVYYCAKYAHGHKWYGYWGQGTQVTVSS	low polyreactivity
QVQLVESGGGLVQAGGSLRLICAASGYTFPRYTMGWYRQAPGKERELVAAITSSGSTNYADSVKGRFTISRDNAKNTVYLQMNCLKPEDTAVYYCATLYRDWWSGYLEVDYWGQGTQVTVSS	high polyreactivity
QVQLVESGGGLVQAGRSLRLSCASSGRIFWDYAMGWYRQAPGKERELVAAISWGSGRTYYADSVKGRFTISRDNAKNTVYLQMNSLKPADSAVDYCAARSSYRKMDYWGQGTQVTVSS	high polyreactivity
QVQLVESGGGLVQAGGSLRLSCAASGSTFIGSDMGWYRQAPGKERELVAAISYSDGTYYADSVKGRFTISRDNAKNTVYLQMNSLKPEDTAVYYCATSYRDIGSHVGYWGQGTQVTVSS	low polyreactivity
QVQLVESGGGLVQAGRSLRLSCAASGITFGRNTMGWYRQAPGKERELVAAIDSGGNTYADSVKGRFTISRDNAKNTVYLQMNSLKPEDTAVYYCAVDGGEFSSYGYWGQGTQVSVSS	low polyreactivity
QVQLVESGGGLVQAGGSLRLSCAASGSTFRYNAMGWYRQAPGKERELVAAINRGGGTDYADSVKGRFTISRDNAKNTVYLQMNSLKPEDTAVYYCNATTGYGGYNYWGQGTQVTVSS	low polyreactivity
QVQLVESGGGLVQAGGSLRLSCAASGSIFGYYAMGWYRKAPGKERELVAAISWSDGSTYYADSVKGRFTISRDNAKNTVYLQMNSLNPEDTAVYYCAARFTPYITSDDGHYDYWGQGTQVTVSS	low polyreactivity
QVQLVESGGGLVQAGGSLRLSCAASGGIFRGYVMGWYRQAPGKERELVAAISYSGGNTYYADSVKGRFTISRDNAKNTVYLQMNSLKPEDTAVYYCDTVRSDFHSDDYWGQGTQVTVSS	low polyreactivity
QVQLVESGGGLVQAGGSLRLSCAASGGIFYRNAMGWYRQAPGKERELVAAITQSGGRTYYADSVKGRFTISRDNAKNTVYLQMNSLKPEDTAVYYCAARSRKLYGHYRGAYDYWGQGTQVTVSS	high polyreactivity
QVQLVESGGGLVQAGGSLRLSCAASGLTFIYYAMGWYRQAPGKERELVARINNGDNTYYADSVKGRFTISRDNAKNTVYLQMNRLNPEDTAVYYCAAARYSRLSRTRPGKYGYWGQGTQVTVSS	low polyreactivity
QVQLVESGGGLVQAGGSLRLSCAASGITFTRNVMGWYRQAPGKERELVAAISGSGGSTYYADSVKGRFTISRDNAKNTVYLQMNSLKPEDTAVYYCAARSRGGRRYDYWGQGTQVTVSS	high polyreactivity
HVQLVESGGGLVQAGGSLRLSCAASGITLTIYVMGGYRQAPGKERELVAAISTSGGSTYYADSVKGRFTISRDNAKNTDYLQMNSLKPEDTAVYYCNATPLRRYYGRYLMDYWGQGTQVTVSS	high polyreactivity
QDQLVESGVGLVQAGGSHRLSSAASGSTFRRNTMGWYRQAPGKERELVAAISNGGRTYYADSVKGRFTISRDNAKNTVYLQMNRLKPEDTAVYYCNKVRSPWYDSWGQGTQVTVSS	high polyreactivity
QDQLEDSGGGLVQAGGSLRLSCAASGRTFTLYAMGWSRQAPGKERELVASISRSGGSTYYADSVKGRFTISRDNAKNTVYLQMNSVKPEDTAVDYCAARRFAWLFIYDYWGQGTQVTVSS	high polyreactivity
QVQLVESGGGLVQAGGSLLLSCAASGFIFGLNAMGWYRQAPGKERELVAAIRSASSTNYADSVKGRFTISRDNAKNTVYLQMNSLKPEDTAVYYCAAEYVTYQQGFWGYDYWGQGTQVTVSS	low polyreactivity
QVQLVESGGGLVQAGGSLRLSCAASGSIFYYYAMGWYRQAPGKVRELVASISSGGRTYYADSVKGRFTISRDNAENTLYLQLNSLKPEDSAVYYCAVEVWWWEGDYDYWGLGTQVTVSS	high polyreactivity
